Experimental data: article PMC9503459, “Antifungal Activity, Structural Stability, and Immunomodulatory Effects on Human Immune Cells of Defensin from the Lentil Lens culinaris” (Membranes, 2022)
No end group written: not given here.

B1: α-casein: model protein substrate bovine α-casein (protein, UniProt P02662 16-214, looked up)
Alpha-S1-casein: RPKHPIKHQGLPQEVLNENLLRFFVAPFPEVFGKEKVNELSKDIGSESTEDQAMEDIKQMEAESISSSEEIVPNSVEQKHIQKEDVPSERYLGYLEQLLRLKKYKVPQLEIVPNSAEERLHSMKEGIHAQQKEPMIGVNQELAYFYPELFRQFYQLDAYPSGAWYYVPLGTQYTDAPSFSDIPNPIGSENSEKTTMPLW

Assays:
[1] = test system: proteolytic enzymes of Candida albicans; assay: Sensitivity to proteolytic enzymes of Candida albicans (cell lysate, SDS-PAGE); type: in vitro ADME; details: for stability to proteolysis by yeast: up to 72 h
Protocol: (§1) For study of Lc-def sensitivity to the clinical isolate of C. albicans, lysates of yeast cells in different concentration and pH were used basically as previously described for rhesus macaque θ-defensin 1 [22]. Cells were inoculated onto modified YPD medium and grown at 37 ℃ for 48 h before reaching the stationary phase of growth. Cells were harvested by centrifugation, washed two times in sterile phosphate buffered saline (PBS), pH 7.2, or sterile 40 mM sodium acetate, pH 4.0, and resuspended in the corresponding buffer to final concentrations of 1 × 10^9 cells/mL or 1 × 10^3 cells/mL. Two freeze-thaw cycles in liquid nitrogen were used for cell disruption, and supernatants were collected following centrifugation. Supernatants (12.5 μL) were mixed with water solutions (37.5 μL) of Lc-def, α-casein, Psd1, or LL-37 in concentration of 0.67 mg/mL and incubated at 37 ℃ for 72 or 24 h in the case of high or low cell concentration, respectively. To study the possible influence of Lc-def and Psd1 on the degradation process, supernatants (12.5 μL) were mixed with both α-casein or LL-37 in concentration of 1 mg/mL (25 μL) and Lc-def or Psd1 in concentration of 2 mg/mL (12.5 μL). As negative controls, α-casein and peptides were mixed with buffers as well as supernatants were mixed with water without the proteins. The samples were mixed with sample buffer without β-mercaptoethanol (BME), heated at 100 ℃ for 2 min, and analyzed by sodium dodecyl sulfate polyacrylamide gel electrophoresis (SDS-PAGE). Some independent experiments were performed in each case.

C. albicans = details: at 20 μM; cited from earlier work
Protocol: Here, we investigated an ability of Lc-def to inhibit the growth of clinical isolates of Candida albicans, C. krusei, and C. glabrata. An antifungal activity against Candida species has been shown previously for some plant defensins. For example, the pea defensin Psd1 at the concentration of 20 μM and PvD1 from the common bean at 18.4 μ ...

[2] = test system: proteolytic enzymes of Candida albicans; assay: Influence of defensins on degradation of proteins by C. albicans lysate; type: biochemical; details: C. albicans lysate 10^3 cells/mL, pH 7.2, up to 24 h, SDS-PAGE
Protocol: as §1

[3] = CD spectroscopy, secondary structure at different pH and temperature; type: physicochemical; details: far-UV CD, 30 µM, 10 mM phosphate buffer pH 7.4
Protocol: Circular dichroism spectra were recorded at different temperatures using a J-810 spectropolarimeter (Jasco, Hachioji, Tokyo, Japan) in a 0.1 cm path length quartz cell (Hellma GmbH and Co. KG, Mullheim, Germany) in the 190–250 nm range 0.2 using solutions of Lc-def in 10 mM phosphate buffer, pH 7.4, or 150 mM sodium chloride, pH 2.5, simulated gastric fluid, at a concentration of 30 µM. Lysolipids were added at final concentration of 1 mM.

[4] = test system: pepsin, trypsin, α-chymotrypsin; assay: Simulated gastrointestinal digestion in vitro; type: in vitro ADME, porcine pepsin and trypsin, bovine α-chymotrypsin; details: pepsin, 0.1 M HCl pH 2.0 (data not shown)
Source text: Digestive enzymes (porcine pepsin and trypsin, bovine α-chymotrypsin), model protein substrate bovine α-casein, and secondary anti-rabbit IgG polyclonal goat antibodies conjugated to HRP and 3,3′,5,5′-tetramethylbenzidine (TMB) substrates were purchased from Sigma-Aldrich (St. Louis, MO, USA). Synthetic lysophospholipids (lyso-palmitoyl phosphatidylcholine (LPPC), lyso-palmitoyl phosphatidylglycerol (LPPG)) were purchased from Avanti Polar Lipids (Alabaster, AL, USA).
Sensitivity of Lc-def to digestive enzymes was examined by simulation of its gastrointestinal digestion in vitro. Gastric digestion was performed for 2 h, using 50 ng of pepsin per 1 μg of preheated at 100 °C for 30 min and intact Lc-def in 0.1 M HCl, pH 2.0. For duodenal digestion, the pH of the mixture resulting from gastric digestion was adjusted to 8.0 by addition of ammonium bicarbonate. The obtained mixture was incubated for 24 h at 37 °C with 2.5 ng of trypsin and 10 ng of α-chymotrypsin per 1 μg of the defensin. The degree of proteolysis was monitored by SDS-PAGE and RP-HPLC. Gel analysis was performed using Gel Doc XR^+ imaging system (Bio-Rad, Hercules, CA, USA) and Image Lab Software v.6.1.0 (Bio-Rad, Hercules, CA, USA). Some independent experiments were performed in each case. The experiment with α-casein was carried out for comparison.

[5] = C. albicans lysate 10^9 cells/mL, 40 mM sodium acetate pH 4.0, 37 °C, SDS-PAGE

Molecule	remaining at 24 h, 0.5 mg/mL ([1]; Candida albicans cell lysate supernatant (1 × 10^3 cells/mL), C. albicans lysate 10^3 cells/mL, pH 7.2, 37 °C, 24 h, densitometric gel analysis, read-out: intact peptide present in the hydrolysate) [%]	growth inhibition of C. albicans (C. albicans) [%]	stability to proteolysis by yeast [1, 5]	stability to proteolysis by yeast ([1]; C. albicans lysate 10^9 cells/mL, PBS pH 7.2, 37 °C, SDS-PAGE, densitometry, immunoblotting)	influence on the rate of α-casein degradation [2]	Random, % [3] [%]	α-Helix, % [3] [%]	β-Sheet, % [3] [%]	β-Turn, % [3] [%]	time after which the protein band was absent ([1]; C. albicans lysate 10^3 cells/mL, pH 7.2, 37 °C, SDS-PAGE) [h]	time to complete degradation ([1]; C. albicans lysate 10^9 cells/mL, pH 7.2, 37 °C, SDS-PAGE) [h]	time to almost complete degradation by pepsin [4] [min]
CC[C@H](C)[C@H](NC(=O)[C@H](CCCCN)NC(=O)[C@H](CCC(=O)O)NC(=O)[C@H](CCCCN)NC(=O)[C@H](CO)NC(=O)[C@H](CCCCN)NC(=O)[C@H](CCCNC(=N)N)NC(=O)[C@H](Cc1ccccc1)NC(=O)[C@H](Cc1ccccc1)NC(=O)[C@H](CC(=O)O)NC(=O)CNC(=O)[C@H](CC(C)C)NC(=O)[C@@H](N)CC(C)C)C(=O)NCC(=O)N[C@@H](CCCCN)C(=O)N[C@@H](CCC(=O)O)C(=O)N[C@@H](Cc1ccccc1)C(=O)N[C@@H](CCCCN)C(=O)N[C@@H](CCCNC(=N)N)C(=O)N[C@H](C(=O)N[C@H](C(=O)N[C@@H](CCC(N)=O)C(=O)N[C@@H](CCCNC(=N)N)C(=O)N[C@H](C(=O)N[C@@H](CCCCN)C(=O)N[C@@H](CC(=O)O)C(=O)N[C@@H](Cc1ccccc1)C(=O)N[C@@H](CC(C)C)C(=O)N[C@@H](CCCNC(=N)N)C(=O)N[C@@H](CC(N)=O)C(=O)N[C@@H](CC(C)C)C(=O)N[C@H](C(=O)N1CCC[C@H]1C(=O)N[C@@H](CCCNC(=N)N)C(=O)N[C@H](C(=O)N[C@@H](CCC(=O)O)C(=O)N[C@@H](CO)C(=O)O)[C@@H](C)O)C(C)C)[C@@H](C)CC)C(C)C)[C@@H](C)CC [LL-37, reference compound]	~30											
Psd1: pea Pisum sativum defensin (UNIPROT P81929), recombinant (KTCEHLADTYRGVCFTNASCDDHCKNKAHLISGTCHNWKCFCTQNC; ends and bridges not checked; cysteine pairing not given here; UniProt P81929 1-46, looked up) [reference compound]		100	stable	stable	but not Psd1 decreased the rate of α-casein degradation	30.7	14.8	31.8	22.8			
B1			slow							≤ 8	≤ 2	≤ 5
